# Test results from publication PMC3098174.
# Like-named read-outs stand apart in the source and are kept apart here.
# How the values were obtained:
# [1] = biological target: Stingray Pancreatic Lipase (Dasyatis pastinaca) (common stingray Dasyatis pastinaca)
# [2] = biological target: Stingray Pancreatic Lipase (Dasyatis pastinaca) (common stingray Dasyatis pastinaca); assay: lipase activity titration with colipase, Scatchard plot; apparent Kd from the slope of Scatchard plots; lipase (2.1 nM) with increasing amounts of colipase, emulsified olive oil as substrate, 6 mM NaTDC, pH 8.5, 37°C, pH-stat
# [3] = biological target: chicken pancreatic lipase (chicken); assay: as above
# [4] = biological target: Stingray Pancreatic Lipase (Dasyatis pastinaca) (common stingray Dasyatis pastinaca); assay: as above; remark: listed apart in the source
# [5] = biological target: turkey pancreatic lipase (turkey); assay: as above
# [6] = biological target: dromedary pancreatic lipase (dromedary); assay: as above
# [7] = biological target: chicken pancreatic lipase (chicken)
# [8] = biological target: Stingray Pancreatic Lipase (Dasyatis pastinaca) (common stingray Dasyatis pastinaca); remark: listed apart in the source
# [9] = biological target: turkey pancreatic lipase (turkey)
# [10] = biological target: dromedary pancreatic lipase (dromedary)
# Chain of Stingray Pancreatic Lipase (Dasyatis pastinaca) (common stingray Dasyatis pastinaca) (A0A059TA26 entry or part of it): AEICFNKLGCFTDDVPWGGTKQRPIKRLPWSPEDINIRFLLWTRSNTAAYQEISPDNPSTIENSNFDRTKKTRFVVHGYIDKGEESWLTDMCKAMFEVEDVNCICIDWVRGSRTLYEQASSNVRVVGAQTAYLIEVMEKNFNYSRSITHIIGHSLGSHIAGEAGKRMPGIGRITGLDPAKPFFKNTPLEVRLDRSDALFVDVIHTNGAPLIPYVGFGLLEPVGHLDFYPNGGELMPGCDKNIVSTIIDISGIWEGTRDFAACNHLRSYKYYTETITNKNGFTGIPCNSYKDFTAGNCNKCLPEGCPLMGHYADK
"kcat/Kd of SPL activated by colipase (olive oil emulsion, 6 mM NaTDC) (S^-1 M^-1 10^-9) [1]",Kd [2] [nM],Kd [3] [nM],Kd [4] [nM],Kd [5] [nM],Kd [6] [nM],"kcat/Kd of lipase activated by stingray colipase (olive oil emulsion, 6 mM NaTDC) (S^-1 M^-1 10^-9) [7]","kcat/Kd of lipase activated by stingray colipase (olive oil emulsion, 6 mM NaTDC) (S^-1 M^-1 10^-9) [8]","kcat/Kd of lipase activated by stingray colipase (olive oil emulsion, 6 mM NaTDC) (S^-1 M^-1 10^-9) [9]","kcat/Kd of lipase activated by stingray colipase (olive oil emulsion, 6 mM NaTDC) (S^-1 M^-1 10^-9) [10]",Substance
1140,2.2,–,–,–,–,–,–,–,–,dromedary pancreatic colipase (natural protein)
599,3.6,–,–,–,–,–,–,–,–,turkey pancreatic colipase (natural protein)
2070,1.2,4.5,1.15,2.9,3,611,2070,946,930,stingray pancreatic colipase (Dasyatis pastinaca) (natural protein)
576,3.9,–,–,–,–,–,–,–,–,chicken pancreatic colipase (natural protein)
